From paper PMC4157730 (Journal of molecular biology, 2012)

What was measured:
[1] = molecular target: the molecule itself; assay: negative staining transmission electron microscopy
AUC = molecular target: the molecule itself; assay: AUC

B1: human apolipoprotein (apo) C-II (natural protein, UniProt P02655 23-101, looked up)
chain: TQQPQQDEMPSPTFLTQVKESLSSYWESAKTAAQNLYEKTYLPAVDEKLRDLYSKSTAAMSTYTGIFTDQVLSVLKGEE
stoichiometry N [1]: ~621 subunits
Ka (AUC): 3.27e+11 M⁻¹
